Test results: article PMC6457126 (Proteins, 2018)
No end group written: not given here.

T1: ATAD2 CO C1057A/C1079A/C1101A bromodomain (triple cysteine mutant) (human, UniProt Q6PL18 981-1108, C1057A | C1079A | C1101A)
T1 sequence: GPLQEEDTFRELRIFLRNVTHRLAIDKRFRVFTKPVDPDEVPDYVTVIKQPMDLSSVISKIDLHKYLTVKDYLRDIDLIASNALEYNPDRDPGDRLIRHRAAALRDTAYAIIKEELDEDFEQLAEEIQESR


Experiments:
[1] = target: histone H4K5ac (Homo sapiens) (UniProt P62805); test: ITC; details: cited from earlier work
[2] = target: T1, ATAD2 CO C1057A/C1079A/C1101A …; test: ITC

| Kd [2] | dH [2] | stoichiometry N [2] | Molecule | Kd [1] |
| --- | --- | --- | --- | --- |
|  |  |  | ATAD2 bromodomain (from UniProt Q6PL18) | 22 µM |
| 113 µM | -4200 cal/mol | 0.84 | SGRGK(Ac)GGKGL [histone H4K5ac peptide (residues 1-10)] |  |
